# In patent US7422862B2, “Methods for identifying modulators of apoptosis” (The Burnham Institute, priority 2001, dated 2008):
# Assays:
# Bok = biological target: T1, Bok (Homo sapiens, UniProt Q9UMX3); assay: Co-immunoprecipitation with Bcl-2 family proteins in HEK293T cells; assay type: binding
# T1 construct: expressed in transfected cells; host or cells: HEK293T
# T1 sequence (Q9UMX3 1-212): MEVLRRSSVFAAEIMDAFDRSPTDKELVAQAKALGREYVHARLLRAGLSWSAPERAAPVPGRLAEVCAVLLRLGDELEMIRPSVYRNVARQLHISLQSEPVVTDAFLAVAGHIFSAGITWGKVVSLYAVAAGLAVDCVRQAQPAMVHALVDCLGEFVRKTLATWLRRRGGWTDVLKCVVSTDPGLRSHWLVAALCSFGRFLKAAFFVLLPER
# Description: (§1) (A) HEK293T cells were transfected with pcDNA3-myc plasmids encoding Bax or other Bcl-2 family proteins with GFP, GFP-HN, or GFP-HN(C8P). Cell lysates were immunoprecipitated with polyclonal anti-GFP antibody. The immunoprecipitates or the lysates were blotted with anti-myc or anti-GFP antibodies, respectively. The slower migrating form of GFP seen in lane 1 (asterisk)represents an alternative form of GFP produced from the wild-type (control) p-EGFP-Cl plasmid (http://clonotech.com). (B) Testes of three-week-old mice were homogenized in lysis buffer (0.1% Triton X-100, 50 mM Tris-HCl, pH7.5, 1 mM EDTA, plus protease inhibitor cocktail). The lysates were immunoprecipitated with control rabbit serum or polyclonal anti-mouse Bax antibody. The immunoprecipitates or the lysates were subjected to electrophoresis in Tris/Tricine gels (16% T, 3% C), electroblotted to PVDF membrane, and immunoblotted with polyclonal anti-HN antibody or monoclonal anti-Bax antibody 6A7 (Trevigen). (C) The affinity (Kd) of Bax/HN interaction was measured by fluorescence polarization assay, using various concentrations of purified recombinant Bax and 40 nM rhodamine-conjugated HN peptide. Control peptide from CD40 is also shown (mean +Std Dev; n=3).
# (§2) Furthermore, multiple Bcl-2 family proteins were surveyed for interactions with Humanin by coimmunoprecipitation experiments (FIG. 5A).
# (§3) Immunoblotting and immunoprecipitations were performed as follows. Immunoblotting was performed as described previously (Fields and Song, Nature 340:245-246 (1989)). For co-immunoprecipitations, cells were cultured in 50 uM […] Valine Alanine Asparate fluoromethyl-ketone (zVAD-fmk) to prevent apoptosis. Cells were suspended in lysis buffer (50 mM Tris-HCl, pH7.4; 150 mM NaCl; 20 mM EDTA; 50 mM NaF; 0.5% NP-40; 0.1 mM Na3VO4; 20 ug/ml Leupeptin; 20 ug/ml Aprotinin; 1 mM DTT; and 1 mM PMSF). Lysates (200 ul diluted in 1 ml final volume of lysis buffer) were cleared by incubation with 15 ul of protein G-Sepharose 4B (Zymed) and then incubated with 15 ul of polyclonal antibody and 15 ul of protein G at 4° C. overnight. Beads were then washed 4 times with 1.5 mls lysis buffer before boiling in Laemmli sample buffer and performing SDS-PAGE/immunoblotting.
# Mcl-1 = Mcl-1 (Homo sapiens, UniProt Q07820); assay: as above; assay type: binding
# Description: as §1, §2, §3
# GFP-Bax = biological target: T2, GFP-Bax (Homo sapiens, UniProt Q07812); assay: STS-induced GFP-Bax translocation to mitochondria in Cos7 cells (confocal microscopy); assay type: cell-based; settings: peptide transduced with Chariot, 1 μM STS
# T2 construct: expressed in transfected cells; host or cells: Cos-7
# Method: (A-B) Humanin peptide prevents STS-induced Bax translocation in vivo. Cos-7 cells were first transfected with GFP-Bax plasmids. After 24 hrs, untagged wild-type or C8P mutant Humanin peptides were introduced into cells using ChariotTM reagent, and 2 h later cells were treated with 1 μM STS. After 4 h, the percentage of cells with translocated Bax was determined (mean±SD; n=3) by confocal microscopy (A) and representative photomicrographs (B). (C) Wild-type or C8P mutant Humanin peptides were introduced into Cos7 cells using ChariotTM reagent. Cytosolic (C) and mitochondria-containing (M) fractions were isolated by differential centrifugation 23 and analyzed by immunoblotting using anti-Bax (top), Hsp60 (middle) (mitochondrial marker), or Tubulin (bottom) (cytosol marker) antibodies. (D) HN or mutant control double-strand siRNAs were transfected into SF268 cells. After 48 h, cells were cultured without (Control) or with 0.1 uM STS. After 24 hr, cells were fractionated and analyzed by immunoblotting as above. (E) Isolated mitochondria were mixed with 400 ng Bax protein, with or without preincubating Bax with 100 uM Humanin or Humanin(C8P) peptides for 10 min. After 3 h at 30° C., mitochondria were centrifuged and the resulting pellets (P) and supernatants (S) were analyzed by immunoblotting using anti-Cytochrome c (top), Hsp60 (middle), and Bax (bottom) antibodies. […]
# T2 sequence (Q07812 whole entry): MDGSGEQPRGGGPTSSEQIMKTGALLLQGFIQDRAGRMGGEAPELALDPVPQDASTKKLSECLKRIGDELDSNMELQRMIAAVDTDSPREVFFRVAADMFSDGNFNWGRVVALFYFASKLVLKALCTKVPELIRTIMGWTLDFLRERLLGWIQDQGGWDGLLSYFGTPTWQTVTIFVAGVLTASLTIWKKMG
# Chain of Mcl-1 (Q07820 whole entry, species assumed): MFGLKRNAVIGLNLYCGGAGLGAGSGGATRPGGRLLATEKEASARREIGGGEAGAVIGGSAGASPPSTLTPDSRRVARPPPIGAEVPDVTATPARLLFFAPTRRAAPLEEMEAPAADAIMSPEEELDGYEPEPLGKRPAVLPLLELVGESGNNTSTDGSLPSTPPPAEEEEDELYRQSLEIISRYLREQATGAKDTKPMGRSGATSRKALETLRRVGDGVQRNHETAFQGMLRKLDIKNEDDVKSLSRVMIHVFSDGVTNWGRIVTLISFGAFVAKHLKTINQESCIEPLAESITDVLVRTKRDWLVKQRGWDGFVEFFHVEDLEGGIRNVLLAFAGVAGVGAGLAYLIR
co-immunoprecipitation with Bok (Bok),co-immunoprecipitation with Mcl-1 (Mcl-1),Substance,suppression of GFP-Bax translocation (GFP-Bax)
did not co-immunoprecipitate,did not co-immunoprecipitate,GFP-HN: Wild-type full-length Humanin fused to Green Fluorescent Protein,–
–,–,"Humanin: 24 amino acid polypeptide, cytosolic form of human Humanin (SEQ ID NO:2); used as synthetic peptide or expressed fusion",about half
